Assay [1] has as its target T1, CCT2 D2-P7 fusion protein (Homo sapiens (Human), UniProt P78371 217-519).
T1 construct: D2 domain of CCT2 fused to the P7 peptide of CCT2; also called HA-D2-P7; not shown: HA tag of plasmid pFUGW-HA-D2-P7
T1 sequence: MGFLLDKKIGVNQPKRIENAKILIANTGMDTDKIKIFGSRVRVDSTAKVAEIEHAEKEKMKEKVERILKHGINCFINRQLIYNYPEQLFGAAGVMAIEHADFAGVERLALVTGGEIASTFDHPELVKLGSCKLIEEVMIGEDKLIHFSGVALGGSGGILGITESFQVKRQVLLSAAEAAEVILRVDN
The experiment in a line: co-IP. The protocol: Co-immunoprecipitation was performed essentially as described before. In brief, 24 h after transfection, the cells were collected and lysed on ice for 30 min in co-IP buffer (50 mM Tris/HCl pH 7.4, 150 mM NaCl, 1 mM EDTA, 0.5% NP40) with protease inhibitor mixture, and the lysates were cleared by centrifugation. The resulting supernatants were incubated with indicated agarose or magnetic beads and rotated at 4° C. for 3 h. The agarose was washed five times with co-IP buffer. As for the BFP-tagged Q103, the supernatants were incubated with rabbit anti-BFP antibodies and Protein A/G PLUS-Agarose according to the manufacturers' protocol. After washing, 2×SDS loading buffer was added to the beads, and immunoblot was performed as described previously.

The target of assay [2] is T2, HA-CCT6 (human, UniProt P40227 2-531).
T2 construct: Amplified from HEK293T cDNA; not shown: N-terminal HA tag
T2 sequence (P40227 2-531 limits assumed): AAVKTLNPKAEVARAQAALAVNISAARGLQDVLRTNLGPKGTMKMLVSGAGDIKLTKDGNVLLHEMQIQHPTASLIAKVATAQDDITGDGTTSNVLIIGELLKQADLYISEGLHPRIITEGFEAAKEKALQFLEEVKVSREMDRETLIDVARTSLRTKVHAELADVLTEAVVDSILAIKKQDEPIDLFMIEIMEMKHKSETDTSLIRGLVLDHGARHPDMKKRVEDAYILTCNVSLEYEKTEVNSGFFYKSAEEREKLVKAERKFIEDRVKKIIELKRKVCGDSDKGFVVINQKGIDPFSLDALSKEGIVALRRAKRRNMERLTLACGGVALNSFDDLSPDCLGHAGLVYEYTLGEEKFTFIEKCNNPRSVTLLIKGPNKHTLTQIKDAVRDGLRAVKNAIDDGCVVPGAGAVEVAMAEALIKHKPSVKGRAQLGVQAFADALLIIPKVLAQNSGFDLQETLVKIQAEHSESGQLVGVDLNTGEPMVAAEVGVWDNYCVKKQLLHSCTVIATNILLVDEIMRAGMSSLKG
Description: co-IP with T7-LC3C in HEK293T. The protocol:
(§1) The data are representative of three independent experiments. [0146] […] The data are representative of three independent experiments. [0147] […] The data are representative of three independent experiments. [0148] […] The interaction of the peptides with T7-GABARAP or T7-GABARAPL1 proteins was analyzed by in vitro pull-down. The data are representative of three independent experiments. [0149] […] The data are representative of three independent experiments. [0150] […] [0151] (K) Quantification of Q103-HTT-GFP area/DAPI area (mean±SEM) as shown in [0152] (J). 48 h represents IB accumulation stage and 72 h represents clearance stage. P values are indicated (two-tailed t test, >20 views from three independent experiments). [0153] […] The data are representative of three independent experiments. [0154] […] The data are representative of three independent experiments. [0155] […] The data are representative of three independent experiments.
(§2) Co-immunoprecipitation was performed essentially as described before. In brief, 24 h after transfection, the cells were collected and lysed on ice for 30 min in co-IP buffer (50 mM Tris/HCl pH 7.4, 150 mM NaCl, 1 mM EDTA, 0.5% NP40) with protease inhibitor mixture, and the lysates were cleared by centrifugation. The resulting supernatants were incubated with indicated agarose or magnetic beads and rotated at 4° C. for 3 h. The agarose was washed five times with co-IP buffer.

In assay [3] the target is T3, HA-CCT8 (human, UniProt P50990 2-548).
T3 construct: not shown: N-terminal HA tag
T3 sequence (looked up): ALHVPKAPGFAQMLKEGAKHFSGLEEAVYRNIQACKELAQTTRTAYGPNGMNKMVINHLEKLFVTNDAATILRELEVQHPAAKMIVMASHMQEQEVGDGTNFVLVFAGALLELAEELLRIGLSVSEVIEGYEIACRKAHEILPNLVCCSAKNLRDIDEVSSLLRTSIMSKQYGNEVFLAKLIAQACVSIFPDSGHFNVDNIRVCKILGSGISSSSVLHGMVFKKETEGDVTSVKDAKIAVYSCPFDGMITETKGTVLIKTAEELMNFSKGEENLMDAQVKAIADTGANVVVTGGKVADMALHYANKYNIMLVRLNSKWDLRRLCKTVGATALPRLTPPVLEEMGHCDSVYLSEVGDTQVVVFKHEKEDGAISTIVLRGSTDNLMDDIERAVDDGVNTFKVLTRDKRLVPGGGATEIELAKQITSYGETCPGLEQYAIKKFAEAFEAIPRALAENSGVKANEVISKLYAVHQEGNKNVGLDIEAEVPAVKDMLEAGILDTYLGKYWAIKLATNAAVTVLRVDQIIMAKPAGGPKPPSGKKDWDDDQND
Description: co-IP with T7-LC3C in HEK293T. The protocol: as §1, §2

In assay [4] the target is T4, HA-CCT3 (human, UniProt P49368 1-545).
T4 construct: Amplified from HEK293T cDNA; not shown: N-terminal HA tag
T4 sequence: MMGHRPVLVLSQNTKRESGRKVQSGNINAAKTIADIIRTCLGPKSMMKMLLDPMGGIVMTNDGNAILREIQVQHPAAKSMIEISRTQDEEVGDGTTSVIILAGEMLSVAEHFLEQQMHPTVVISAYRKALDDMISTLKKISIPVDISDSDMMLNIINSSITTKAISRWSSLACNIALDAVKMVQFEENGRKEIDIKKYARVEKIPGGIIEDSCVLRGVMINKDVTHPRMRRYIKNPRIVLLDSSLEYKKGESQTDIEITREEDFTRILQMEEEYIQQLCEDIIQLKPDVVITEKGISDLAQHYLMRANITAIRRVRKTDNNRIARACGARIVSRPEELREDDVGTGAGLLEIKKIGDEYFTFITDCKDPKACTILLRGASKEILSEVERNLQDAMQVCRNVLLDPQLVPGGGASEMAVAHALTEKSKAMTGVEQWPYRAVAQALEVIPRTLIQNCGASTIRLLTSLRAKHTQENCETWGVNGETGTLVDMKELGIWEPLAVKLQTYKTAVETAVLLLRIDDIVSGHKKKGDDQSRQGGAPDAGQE
Description: co-IP with T7-LC3C in HEK293T. The procedure: as §1, §2

B1: T7-LC3C (expressed in cells) (other, UniProt Q9BXW4 1-126, looked up)
chain: MPPPQKIPSVRPFKQRKSLAIRQEEVAGIRAKFPNKIPVVVERYPRETFLPPLDKTKFLVPQELTMTQFLSIIRSRMVLRATEAFYLLVNNKSLVSMSATMAEIYRDYKDEDGFVYMTYASQETFG
notes: Expressed from pCDNA3-T7-LC3C; not shown: T7 tag
B1: the binding result in assay [1] is listed as “binds”; in assay [2], “binds”; in assay [3], “no binding”; in assay [4], “binds”.

The values above are taken from patent publication US20240350586A1 (TSINGHUA UNIVERSITY, published 2024).
